According to patent US20230039487A1 (SHENZHEN FEIPENG BIOLOGICAL THERAPY, published 2023):
Residue numbers refer to the chain shown, from its start.

B1: 5E2 (antibody, V domains shown)
VH: EVQLQQSGPELIKPGASVKMSCKASGYTFTSYVVHWVKQKPGQGLEWIGYIIPYNDDTKYNEKFKGKATLTSDKSSSTAYMELSSLTSEDSAVYYCARWDYDDGYFDYWGQGTTLTVSS
VL: DVVMTQTPLSLPVTLGDQASISCRSSQSLLHSNGNTYLHWYLQKPGQSPKLLIYKVSNRFSGVPDRFSGSGSGTDFTLKISRVEAEDLGVYFCSQITHIPFTFGSGTKLEIKR
notes: Mouse hybridoma antibody; It was amplified with primers for mouse IgG1 and detected with anti-mouse IgG in Embodiment 2; In Embodiment 5 it is called mVH-mVL ('a murine antibody before humanization'); also called BCMA antibody 5E2; mVH-mVL
B2: hu VH1-VL1 (antibody, V domains shown)
VH: B1 VH with E1Q, Q5V, P9A, L11V, I12K, K38R, K40A, T87R, S91T, L115V
VL: DVVMTQSPLSLPVTLGQPASISCRSSQSLLHSNGNTYLHWYLQKPGQSPQLLIYKVSNRFSGVPDRFSGSGSGTDFTLKISRVEAEDVGVYFCSQITHIPFTFGQGTKLEIK
notes: Humanized 5E2; also called humanized BCMA antibody hu VH1-VL1
B3: hu VH1-VL2 (antibody, V domains shown)
VH: B1 VH with E1Q, Q5V, P9A, L11V, I12K, K38R, K40A, T87R, S91T, L115V
VL: B2 VL with S7T, P12S, L15P, R24K
notes: Humanized 5E2; also called humanized BCMA antibody hu VH1-VL2
B4: hu VH2-VL1 (antibody, V domains shown)
VH: QVQLVQSGAEVKKPGASVKMSCKASGYTFTSYVVHWVRQAPGQGLEWIGYIIPYNDDTKYNEKFKGRVTLTSDKSTSTAYMELSSLRSEDTAVYYCARWDYDDGYFDYWGQGTTVTVSS
VL: B2 VL
notes: Humanized 5E2; also called humanized BCMA antibody hu VH2-VL1
B5: hu VH1-VL3 (antibody, V domains shown)
VH: B4 VH with R67K, V68A, T76S
VL: DIVMTQTPLSLSVTPGQPASISCKSSQSLLHSNGNTYLHWYLQKPGQPPQLLIYKVSNRFSGVPDRFSGSGSGTDFTLKISRVEAEDVGVYYCSQITHIPFTFGQGTKLEIKR
notes: Humanized 5E2; also called humanized BCMA antibody hu VH1-VL3
B6: R0317 (C11D5.3 BCMA mouse monoclonal antibody) (antibody, V domains shown)
VH: QIQLVQSGPELKKPGETVKISCKASGYTFTDYSINWVKRAPGKGLKWMGWINTETREPAYAYDFRGRFAFSLETSASTAYLQINNLKYEDTATYFCALDYSYAMDYWGQGTSVTVSS
VL: DIVLTQSPASLAMSLGKRATISCRASESVSVIGAHLIHWYQQKPGQPPKLLIYLASNLETGVPARFSGSGSGTDFTLTIDPVEEDDVAIYSCLQSRIFPRTFGGGTKLEIK

Experiments:
[1] = target: T1, hBCMA ECD hFc (ACRO, BC7-H5254) (human, UniProt Q02223 1-54); assay: ELISA; hBCMA ECD hFc coated at 2 µg/ml, antibody in 3-fold dilutions
T1 construct: extracellular domain; Bought reagent (ACRO BC7-H5254); also called R0341; not shown: human Fc
T1 sequence (looked up): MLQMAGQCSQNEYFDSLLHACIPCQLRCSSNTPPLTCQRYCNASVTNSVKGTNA
From the text: R0317 is a C11D5.3BCMA mouse monoclonal antibody, and its specific sequence and information may be found publicly.

[2] = target: T2, human BCMA (full-length, on cells) (human, UniProt Q02223 1-184); assay: flow cytometry on K562, H929, RPMI8226 and K562-BCMA cells; PE goat anti-mouse IgG1
T2 construct: whole, on cells; also called K562-BCMA; CHO-BCMA
T2 sequence (looked up): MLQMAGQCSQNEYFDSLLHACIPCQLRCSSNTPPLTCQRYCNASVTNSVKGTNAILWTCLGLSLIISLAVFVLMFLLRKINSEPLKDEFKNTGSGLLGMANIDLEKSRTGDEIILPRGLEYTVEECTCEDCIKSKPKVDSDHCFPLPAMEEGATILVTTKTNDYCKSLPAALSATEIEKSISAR
From the text: The specificity of BCMA antibody of the present disclosure is detected by FACs. A human BCMA full-length gene is synthesized in vitro, and a restriction enzyme cutting site is introduced, the synthesized human BCMA full-length gene is inserted into a lentiviral packaging plasmid vector (PCDHF) by double enzyme digestion, and lentiviral packaging (the specific operation steps are generally 4 plasmid lentiviral packaging steps, please refer to a section about lentiviral packaging on an official website of Jikai Gene in detail) is performed. The prepared lentivirus is infected with a K562 cell (ATCC, article number: CCL-243) to construct a K562-BCMA cell, and the cells are single-clone-picked and identified, to obtain a stable cell line K562-BCMA stably expressing BCMA. The 5E2 and 5F4 antibodies are respectively incubated with K562, H929, RPMI8226 and K562-BCMA cells for 30 min at 4° C., after that, it is washed twice with PBS, then a secondary antibody PE goat anti-mouse IgG1 (Biolegend, B288920) is added, and incubated at 4° C. for 30 min, after that, it is washed twice with PBS. Then, the detection is performed by using a Beckman Coulter flow cytometry. Detection results are shown in FIG. 5 below, and 5E2 and 5F4 may specifically bind to the cells of which the BCMA expression is positive.

[3] = target: T3, hu (human) BCMA ECD His (ACRO, BCA-H522y) (human, UniProt Q02223 1-54); assay: ELISA; hu BCMA ECD His coated at 2 µg/mL, antibody in 3-fold dilutions
T3 construct: extracellular domain; Bought reagent (ACRO BCA-H522y); also called hu BCMA ECD His; not shown: His tag
T3 sequence (looked up): T1 sequence (looked up)

[4] = target: T2, human BCMA (full-length, on cells); assay: flow cytometry on K562-BCMA and CHO-BCMA cells; antibody from 30 µg/ml in 3-fold dilutions, APC anti-human IgG Fc
From the text: A K562 cell (ATCC® CCL-243™) is a human chronic myeloid leukemia cell, and a CHO cell (ATCC® CRL-12023™) is a Chinese hamster ovary cell. The K562 cells and the CHO cells are respectively infected with lentiviruses containing a full-length sequence of human BCMA, and after being infected, a monoclone is picked, to obtain a K562-BCMA cell line and a CHO-BCMA cell line stably expressing BCMA, and the affinity (EC50) of the four humanized antibodies to K562-BCMA and CHO-BCMA is detected respectively. A specific detection method is as follows: cells are harvested, washed once with PBS, and resuspended with PBS according to 2E+5 cells/200 μL. The four BCMA humanized antibodies are diluted in a 3-fold gradient with 1% BSA, the concentration of the former gradient antibody is 3 times greater than that of the latter gradient antibody, (the initial concentration of the antibody is 30 μg/ml, and there is a total of 11 gradients), and then it is respectively incubated with the cells at 4° C. for 30 min. After that, it is incubated with APC anti-human IgG Fc Antibody (Biolegend, 409306) for 30 min at 4° C., washed twice with 1x PBS, and detected by a Beckman Coulter (model number: CytoFLEX) flow cytometry. […] The affinity EC₅₀ of hu VH1VL2 to K562-BCMA is slightly weaker. However, the affinity EC₅₀ of hu VH1-VL2 and CHO-BCMA is at the same level as the other three humanized antibodies, and the expression abundance of the four humanized antibodies and the murine BCMA antibody binding to CHO-BCMA is in the order of m VH-m VL, hu VH1-VL1, hu VH2-VL1, hu VH1-VL2, and hu VH1-VL3 from high to low.

[5] = target: T3, hu (human) BCMA ECD His (ACRO, …); assay: ELISA; hu BCMA ECD His coated at 2 µg/mL, antibody from 20 µg/mL in 3-fold dilutions
From the text: Herein, mVH-mVL is a murine BCMA antibody, and is a murine antibody before humanization.

[6] = target: T2, human BCMA (full-length, on cells); assay: flow cytometry on RPMI8226 and H929 myeloma cells; antibody from 10 µg/ml in 3-fold dilutions, PE anti-mouse IgG
Protocol: A RPMI8226 cell (ATCC® CRM-CCL-155™) is a human multiple myeloma peripheral blood B lymphocyte, and a H929 cell (ATCC® CRL-9068™) is a human multiple myeloma bone marrow B lymphocyte. A specific detection method is as follows: cells are harvested, washed with PBS once, and then resuspend with PBS according to 2E+5 cells/200 μl. The three antibodies are diluted in a gradient (the initial concentration of the antibody is 10 μg/ml, it is diluted with 1% BSA in 3-fold, and there is a total of 9 gradients), and then incubated with the cells for 30 min at 4° C. After that, it is incubated with a PE-labeled anti-mouse IgG secondary antibody (Biolegend, B288920), washed twice, and detected by a Beckman Coulter (model number: CytoFLEX) flow cytometry.

| Binder | binding result [1] | binding result [2] | binding result [3] | binding result [4] | binding result [5] | binding result [6] |
| --- | --- | --- | --- | --- | --- | --- |
| B1 | binds | binds | binds |  |  |  |
| B2 |  |  |  | binds | binds |  |
| B3 |  |  |  | binds | binds |  |
| B4 |  |  |  | binds | binds |  |
| B5 |  |  |  | binds | binds |  |
| B6 | binds |  |  |  |  | binds |
